Molecular target: T1, DEC205 on MutuDC 1950 cells (murine dendritic cell line, DEC205+) (murine, UniProt Q60767 28-1723)
T1 construct: whole, on cells; also called CD205; dendritic cells
Test: flow cytometry, MutuDC 1950 cells with parasites at MOI 2 on ice, anti-gp23 mAb

Binder	multiplication factor of the percentage of T. gondii binding to mutuDC cells (against RH strain) [fold]
scFv anti-DEC205 (DC2) protein, membrane anchored ScFv DEC 205 including a HA tag, on the surface of T. gondii RH-DC2 tachyzoites (scFv, also called SS SAG1-HA-ScFv-linker-GPI; RH-DEC205) scFv: YPYDVPDYAQVQLQESGGGLVQPGGSLRLSCAASGFTFNDFYMNWIRQPPGQAPEWLGVIRNKGNGYTTEVNTSVKGRFTISRDNTQNILYLQMNSLRAEDTAIYYCARGGPYYYSGDDAPYWGQGVMVTVSSGGGGSGGGGSGGGGSDIQMTQSPSSLSASVGDRVTITCRASQNIKGWLAWYQQKSGNAPQLLIYKASSLQSGVPSRFSGSGSGTDYIFTISNLQPEDIATYYCQHYQSFPWTFGGGTKLELKGGGAS	≥ 2.5
scFv anti-DEC205 fused to SAG1 (DC2 SAG1) protein, membrane anchored SAG1 ScFv DEC 205 including a HA tag, on the surface of T. gondii RH-DC2-SAG1 tachyzoites (scFv, also called RH-DEC205) scFv: YPYDVPDYAQVQLQESGGGLVQPGGSLRLSCAASGFTFNDFYMNWIRQPPGQAPEWLGVIRNKGNGYTTEVNTSVKGRFTISRDNTQNILYLQMNSLRAEDTAIYYCARGGPYYYSGDDAPYWGQGVMVTVSSGGGGSGGGGSGGGGSDIQMTQSPSSLSASVGDRVTITCRASQNIKGWLAWYQQKSGNAPQLLIYKASSLQSGVPSRFSGSGSGTDYIFTISNLQPEDIATYYCQHYQSFPWTFGGGTKLELKGGGASPLVANQVVTCPDKKSTAAVILTPTENHFTLKCPKTALTEPPTLAYSPNRQICPAGTTSSCTSKAVTLSSLIPEAEDSWWTGDSASLDTAGIKLTVPIEKFPVTTQTFVVGCIKGDDAQSCMVTVTVQARASSVVNNVARCSYGADSTLGPVKLSAEGPTTMTLVCGKDGVKVPQDNNQYCSGTTLTGCNEKSFKDILPKLTENPWQGNASSDKGATLTIKKEAFPAESKSVIIGCTGGSPEKHHCTVKLEFA	≥ 2.5
